Reference: patent publication US20090010935A1
Values belong to the substance of their own block, whether it stands above or below them.

Columns and labels:
[1] = biological target: human epidermal growth factor receptor (EGFR), full-length wild type (human) (UniProt P00533); experiment: cell-based or functional assay
[2] = biological target: ΔEGFR, extracellular-deleted mutant human EGFR (EGFRvIII) (human) (UniProt P00533); experiment: cell-based or functional assay

EGF-induced down-regulation of cell-surface EGFR in cells co-expressing EGFR and kinase deficient Neu (flow cytometry) [1]: 20 to 25%
Substance: N691 stop (cytoplasmic domain deleted rat cellular p185) (from UniProt P06494 23-690) (receptor)

EGF-induced down-regulation of cell-surface EGFR in cells co-expressing EGFR and kinase deficient Neu (flow cytometry) [1]: 20 to 25%
Substance: N757 (Nneu K757M, ATP-binding site mutant of rat cellular p185) (from UniProt P06494 23-1257) (receptor)

phosphorylation content of immunoprecipitated p155 ΔEGFR monomers (mAb Δ124 immunoprecipitation, PY-20 blot, scanning densitometry) [2]: 33.7% | inhibition of anchorage-independent growth by T691 stop neu in U87MG parental cells lacking ΔEGFR [1]: 75.2% | radiation-induced apoptosis (DAPI), U87/T691 cells, 72 h after gamma-irradiation [1]: 20% | radiation-induced apoptosis (DAPI), U87/T691 cells, prolonged serum deprivation combined with radiation [1]: 33%
Substance: T691 stop neu (ectodomain-derived, carboxyl-terminal deletion mutant of the rat p185neu oncogene) (from UniProt P06494 23-654) (receptor)

co-downregulation of cellular p185 with EGFR upon EGF treatment, M1 cells (flow cytometry) [1]: 20% | half life of WT cellular p185 after EGF treatment (pulse-chase, densitometry) [1]: 3 h
Substance: wildtype rat cellular p185 (Nneu) (from UniProt P06494 23-1257) (receptor)
